Data as given in US10429300B2, “Surface plasmon resonance approach to monitor protein-ligand interactions” (The Johns Hopkins University, priority 2015, dated 2019).

T1: rNav1.2a VSD II paddle peptide (V843A, SEQ ID NO: 2) (Rattus norvegicus, UniProt P04775, V843A)
T1 construct: purchased ProteoGenix; host or cells: chemical synthesis (Fmoc solid phase)
T1 sequence (P04775 832-856 V843A): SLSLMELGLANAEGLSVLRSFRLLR

B1: AaHII: Nav channel-selective α-scorpion toxin from Androctonus australis hector; model toxin (protein)
chain: VKDGYIVDDVNCTYFCGRNAYCNEECTKLKGESGYCQWASPYGNACYCYKLPDHVRTKGPGRCH
B2: CssIV: β-scorpion toxin from Centruroides suffusus suffusus (protein)
chain: KEGYLVNSYTGCKFECFKLGDNDYCLRECRQQYGKGSGGYCYAFGCWCTHLYEQAVVWPLPNKTCN

Legend:
rNav1.2a = conditions: cited from earlier work
[1] = target: T1, rNav1.2a VSD II paddle peptide (V843A, SEQ ID NO: 2); experiment: SPR on immobilized rNav1.2a VSD II paddle peptide; assay type: binding; conditions: for SPR binding to VSD II paddle peptide: 100 nM toxin, 500 fmol peptide
Protocol: SPR experiments were performed at 25° C. on a Biacore™ T200 instrument (GE Healthcare) using 150 mM NaCl, 3 mM EDTA, 0.005% surfactant P20, and 10 mM HEPES-NaOH, pH 7.4, for the coupling protocol or 50 mM phosphate, pH 7.2, as running buffer. Neutravidin (Thermo Fisher Scientific) was immobilized on CM5 sensor chips (GE Healthcare) using an amine coupling chemistry. All chemicals were obtained from Sigma-Aldrich. […] In all SPR experiments, nonspecific binding obtained in the control flow cell was subtracted from the signal obtained in the experimental flow cell. For qualitative binding analysis, toxins (100 nM in running buffer containing 0.1% BSA) were injected at a flow rate of 20 μl/min over 2 min. […] In between injections, the surface of the sensor chip was regenerated by injecting 1 M NaCl (15 s at 30 l/min). The bulk signal caused by refractive index differences between the flow buffer and the buffer containing the analyte was systematically excluded from the data-fitting process. It is worth noting that isolating a paddle motif (ligand) can induce conformational changes that can affect toxin (analyte) efficacy. […] Sensorgrams can reveal such ligand heterogeneity by displaying biphasic dissociation curves that cannot be fitted with the frequently used Langmuir model, which assumes a 1:1 stoichiometry of analyte to ligand. To account for a possible heterogeneity of surface sites, we calculated the rate constants and affinity equilibrium dissociation constants (KD) for AaHII by a fit to a heterogeneous ligand model incorporated into the Biacore T200 Evaluation™ software (v1.0). This model assumes the presence of two sites on the ligand that can bind analyte and can be described by these equations in which A represents the analyte and B1/B2 represents the heterogeneous ligand:
(A) Shown are the CD spectra of the rNav1.2a VSD II and IV paddle peptides used in this paper. […] (B) Representative association and dissociation kinetic curves obtained using SPR after the application of varying concentrations of AaHII (15-2,000 nM) over a sensor chip to which 50 fmol of the rNav1.2a VSD IV paddle peptide was linked. Toxin was applied after obtaining a steady baseline. Colored traces represent toxin binding obtained after subtraction of the signal from the control flow cell. […] Toxin concentrations are indicated on the right in a shade of gray corresponding to the sensorgram. (C) Representative SPR traces after the application of 100 nM KTX, AaHI, AaHII, LqqV, BomIV, TsVII, and CssIV over a sensor chip to which the rNav1.2a VSD II (left) or IV (right) paddle peptide (500 fmol) was linked. Toxin was applied after obtaining a steady baseline. (D) Binding capacities of 100 nM α-scorpion toxins AaHI, AaHII, LqqV, the α-like scorpion toxin BomIV, and the β-scorpion toxins TsVII and CssIV to the VSD II and IV paddle motifs using SPR (error bars represent±SEM). Y-axis represents the maximum RUs obtained after toxin application.
Next, the VSD IV peptide was fixed on SPR sensor chips by adding a K-linked biotin group to the C terminus, resulting in a 32-amino acid peptide altogether (SEQ ID NO: 4 which is mutated SEQ ID NO: 3 of FIG. 2A).

[2] = tested on: rNav1.2a/Kv2.1 VSD II paddle chimera; experiment: Two-electrode voltage-clamp, rNav1.2a/Kv2.1 VSD II paddle chimera in Xenopus oocytes; assay type: cell-based, rat
Text: The DNA sequence of rat (r)Nav1.2a (provided by A. Goldin, University of California, Irvine, Irvine, Calif.), rKv2.1 (provided by K. J. Swartz, National Institutes of Health), and the rNav1.2a/Kv2.1 VSD II or IV chimera was confirmed by automated DNA sequencing, and cRNA was synthesized using T7 polymerase (mMessage mMachine™ kit; Life Technologies) after linearizing the DNA with appropriate restriction enzymes. Channels were expressed in Xenopus oocytes (obtained from Xenopus 1) and studied after a 1-d incubation after cRNA injection (incubated at 17° C. in 96 mM NaCl, 2 mM KCl, 5 mM HEPES, 1 mM MgCl2, 1.8 mM CaCl2, and 50 μg/ml gentamycin, pH 7.6 with NaOH) using two-electrode voltage-clamp recording techniques (OC-725C; Warner Instruments) with a 150-μl recording chamber. Data were filtered at 4 kHz and digitized at 20 kHz using pClamp™ 10 software (Molecular Devices). Microelectrode resistances were 0.5-1.5 MΩ when filled with 3 M KCl. For Kv chimera channel experiments, the external recording solution contained (mM): 50 KCl, 50 NaCl, 5 HEPES, 1 MgCl2, and 0.3 CaCl2, pH 7.6 with NaOH. For rNav1.2a experiments, the external recording solution contained (mM): 100 NaCl, 5 HEPES, 1 MgCl2, and 1.8 CaCl2, pH 7.6 with NaOH. All experiments were performed at ˜22° C. Leak and background conductances, identified by blocking the channel with agitoxin-2 (provided by K. J. Swartz), have been subtracted for all of the Kv channel currents shown. […]. After the addition of the toxin to the recording chamber, the equilibration between the toxin and the channel was monitored using weak depolarizations elicited at 5- or 10-s (R1629A/L1630A mutant) intervals. Voltage-activation relationships were obtained by measuring tail currents for Kv channels or steady-state currents and calculating conductance for Nav channels, and a single Boltzmann function was fitted to the data according to I/Imax=[1c+cexp(−zF(Vc−cV1/2)/RT)]^−1, where I/Imax is the normalized tail-current amplitude, z is the equivalent charge, V1/2 is the half-activation voltage, F is Faraday's constant, R is the gas constant, and T is temperature in kelvin. For all channels, voltage-activation relationships were recorded in the absence and presence of toxin. The ratio of currents (I/I0) recorded in the presence (I) and absence (I0) of toxin was calculated for voltages typically ranging from −140 to 10 cmV, depending on the construct. […] The apparent equilibrium dissociation constant (apparent KD) for Kv channels was calculated according to KD=((1/(1c−cFu^1/4))c−c1)[toxin], assuming four independent toxin-binding sites per channel. Results are given as mean±SEM unless noted otherwise. Offline data analysis was performed using Clampfit 10™ (Molecular Devices), Origin 8.0™ (OriginLab), and Excel™ (Microsoft). […]

Sequence of rNav1.2a/Kv2.1 VSD II paddle chimera (P04775 832-856 limits assumed, stated change not applied): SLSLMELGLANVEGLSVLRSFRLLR

Row | Molecule | Kd (rNav1.2a; WT rNav1.2a, read-out: affinity of the toxin for WT rNav1.2a) | SPR binding to VSD II paddle peptide [1] | SPR effect on VSD II paddle motif ([1]; up to 20 μM toxin) | interaction with VSD II paddle chimera [2] | effect on WT rNav1.2a gating (rNav1.2a; 100 nM toxin) | concentration required to begin inhibiting the chimera [2] | depolarizing shift in V1/2 ([2]; 1 μM toxin, Boltzmann fit, n=3) | V1/2 in the presence of toxin ([2]; 1 μM toxin, control 33±2 mV)
1 | B1 | ~5 nM | a response was not obtained | not noticed | no interaction was observed | – | – | – | –
2 | B2 | – | no RUs could be detected | – | – | clearly influences WT rNav1.2a gating | 1 µM | ~14 mV | 47±1 mV
